# From patent US20180155451A1 (published 2018)
# B1: GpH7-A5/GpH7-B3 variant S267_03V/GpL16-k0 (antibody, human IgG1, kappa)
# heavy 1: not shown
# heavy 2: not shown
# light: DIVMTQSPLSLPVTPGEPASISCQASESLVHSNRNTYLHWYLQKPGQSPQLLIYKVSNRFSGVPDRFSGSGSGTDFTLKISRVEAEDVGVYYCSQNTHVPPTFGQGTKVEIERTVAAPSVFIFPPSDEQLKSGTASVVCLLNNFYPREAKVQWKVDNALQSGNSQESVTEQDSKDSTYSLSSTLTLSKADYEKHKVYACEVTHQGLSSPVTKSFNRGEC
# notes: heterodimerized IgG1, mutation in one H chain only; also called He Ab
# B2: GpH7-A5/GpH7-B3 variant S267_15Y/GpL16-k0 (antibody, human IgG1, kappa)
# heavy 1: not shown
# heavy 2: not shown
# light: B1 light
# notes: as for B1
# B3: GpH7-A5/GpH7-B3 variant S267_07I/GpL16-k0 (antibody, human IgG1, kappa)
# heavy 1: not shown
# heavy 2: not shown
# light: B1 light
# notes: as for B1
# B4: GpH7-A5/GpH7-B3 variant V266_20W/GpL16-k0 (antibody, human IgG1, kappa)
# heavy 1: not shown
# heavy 2: not shown
# light: B1 light
# notes: as for B1
# B5: GpH7-A5/GpH7-B3 variant S267_16H/GpL16-k0 (antibody, human IgG1, kappa)
# heavy 1: not shown
# heavy 2: not shown
# light: B1 light
# notes: as for B1
# B6: GpH7-A5/GpH7-B3 variant P271_09D/GpL16-k0 (antibody, human IgG1, kappa)
# heavy 1: not shown
# heavy 2: not shown
# light: B1 light
# notes: as for B1
# B7: GpH7-A5/GpH7-B3 variant S267_14T/GpL16-k0 (antibody, human IgG1, kappa)
# heavy 1: not shown
# heavy 2: not shown
# light: B1 light
# notes: as for B1
# B8: GpH7-A5/GpH7-B3 variant K326_03V/GpL16-k0 (antibody, human IgG1, kappa)
# heavy 1: not shown
# heavy 2: not shown
# light: B1 light
# notes: as for B1
# B9: GpH7-B3 variant L328_03V/GpL16-k0 (Ho Ab) (antibody, human IgG1, kappa)
# heavy: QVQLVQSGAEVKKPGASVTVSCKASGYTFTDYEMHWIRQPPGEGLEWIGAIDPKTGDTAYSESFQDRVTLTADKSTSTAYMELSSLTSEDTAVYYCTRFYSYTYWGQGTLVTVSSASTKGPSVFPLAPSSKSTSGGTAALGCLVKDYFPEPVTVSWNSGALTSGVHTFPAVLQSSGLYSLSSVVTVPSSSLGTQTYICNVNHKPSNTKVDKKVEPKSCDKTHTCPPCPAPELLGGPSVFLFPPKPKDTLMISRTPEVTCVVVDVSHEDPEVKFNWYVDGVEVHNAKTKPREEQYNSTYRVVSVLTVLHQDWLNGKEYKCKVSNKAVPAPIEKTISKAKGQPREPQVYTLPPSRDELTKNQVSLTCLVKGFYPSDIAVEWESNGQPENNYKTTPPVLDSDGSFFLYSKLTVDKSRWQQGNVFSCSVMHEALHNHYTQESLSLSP
# light: B1 light
# notes: Substitution in both H chains; position in EU numbering; also called L328V homodimerized antibody
# B10: GpH7-B3 variant L328_04F/GpL16-k0 (Ho Ab) (antibody, human IgG1, kappa)
# heavy: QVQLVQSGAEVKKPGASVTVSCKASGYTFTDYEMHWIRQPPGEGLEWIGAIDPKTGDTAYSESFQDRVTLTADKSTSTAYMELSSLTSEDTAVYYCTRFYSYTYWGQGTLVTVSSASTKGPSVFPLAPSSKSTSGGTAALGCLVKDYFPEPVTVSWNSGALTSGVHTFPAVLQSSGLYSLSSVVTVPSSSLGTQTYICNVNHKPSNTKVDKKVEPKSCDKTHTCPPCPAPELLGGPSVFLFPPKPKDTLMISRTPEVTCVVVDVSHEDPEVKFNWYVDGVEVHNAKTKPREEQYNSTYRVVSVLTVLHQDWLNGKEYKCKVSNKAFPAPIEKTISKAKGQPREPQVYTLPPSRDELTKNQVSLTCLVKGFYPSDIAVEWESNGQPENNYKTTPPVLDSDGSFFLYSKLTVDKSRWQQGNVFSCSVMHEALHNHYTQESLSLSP
# light: B1 light
# notes: Substitution in both H chains; position in EU numbering; also called L328F homodimerized antibody
# B11: GpH7-B3 variant L328_07I/GpL16-k0 (Ho Ab) (antibody, human IgG1, kappa)
# heavy: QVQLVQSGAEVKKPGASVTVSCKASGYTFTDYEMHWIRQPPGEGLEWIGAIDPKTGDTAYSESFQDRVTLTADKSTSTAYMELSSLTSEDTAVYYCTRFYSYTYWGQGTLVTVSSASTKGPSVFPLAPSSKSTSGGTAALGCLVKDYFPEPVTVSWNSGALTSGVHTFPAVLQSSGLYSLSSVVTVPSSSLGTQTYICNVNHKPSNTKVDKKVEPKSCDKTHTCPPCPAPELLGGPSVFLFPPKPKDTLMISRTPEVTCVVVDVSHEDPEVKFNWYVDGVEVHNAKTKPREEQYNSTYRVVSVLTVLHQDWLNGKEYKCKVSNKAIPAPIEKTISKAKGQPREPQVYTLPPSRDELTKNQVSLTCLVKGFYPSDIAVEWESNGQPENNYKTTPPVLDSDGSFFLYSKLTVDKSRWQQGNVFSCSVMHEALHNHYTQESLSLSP
# light: B1 light
# notes: Substitution in both H chains; position in EU numbering; also called L328I homodimerized antibody
# B12: GpH7-B3 variant P238_08L/GpL16-k0 (Ho Ab) (antibody, human IgG1, kappa)
# heavy: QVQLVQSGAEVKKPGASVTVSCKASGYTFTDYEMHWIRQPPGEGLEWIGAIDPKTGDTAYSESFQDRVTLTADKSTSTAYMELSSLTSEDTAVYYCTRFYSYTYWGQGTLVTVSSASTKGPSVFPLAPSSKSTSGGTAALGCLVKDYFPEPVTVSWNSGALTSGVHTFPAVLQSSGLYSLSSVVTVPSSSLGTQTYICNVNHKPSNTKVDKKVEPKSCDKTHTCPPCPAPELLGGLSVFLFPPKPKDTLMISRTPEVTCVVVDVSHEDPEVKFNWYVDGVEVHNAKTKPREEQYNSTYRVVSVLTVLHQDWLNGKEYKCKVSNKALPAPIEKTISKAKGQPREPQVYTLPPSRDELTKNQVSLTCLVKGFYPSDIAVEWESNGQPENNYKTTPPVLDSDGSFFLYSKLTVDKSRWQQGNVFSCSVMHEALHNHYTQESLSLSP
# light: B1 light
# notes: Substitution in both H chains; position in EU numbering; also called P238L homodimerized antibody
# B13: GpH7-B3 variant L328_15Y/GpL16-k0 (Ho Ab) (antibody, human IgG1, kappa)
# heavy: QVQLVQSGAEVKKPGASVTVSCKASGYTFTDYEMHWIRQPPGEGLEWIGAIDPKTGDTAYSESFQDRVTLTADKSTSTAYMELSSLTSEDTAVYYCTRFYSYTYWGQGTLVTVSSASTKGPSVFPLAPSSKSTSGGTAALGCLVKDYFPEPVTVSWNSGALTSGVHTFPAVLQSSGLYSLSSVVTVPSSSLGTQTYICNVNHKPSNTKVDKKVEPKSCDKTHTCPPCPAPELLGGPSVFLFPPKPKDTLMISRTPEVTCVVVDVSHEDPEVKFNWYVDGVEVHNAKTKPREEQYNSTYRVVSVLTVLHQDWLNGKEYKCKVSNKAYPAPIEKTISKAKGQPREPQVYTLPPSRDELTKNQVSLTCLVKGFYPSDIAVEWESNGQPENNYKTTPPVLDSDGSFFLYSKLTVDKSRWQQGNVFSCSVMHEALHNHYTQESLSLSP
# light: B1 light
# notes: Substitution in both H chains; position in EU numbering; also called L328Y homodimerized antibody
# B14: GpH7-B3 variant K334_15Y/GpL16-k0 (Ho Ab) (antibody, human IgG1, kappa)
# heavy: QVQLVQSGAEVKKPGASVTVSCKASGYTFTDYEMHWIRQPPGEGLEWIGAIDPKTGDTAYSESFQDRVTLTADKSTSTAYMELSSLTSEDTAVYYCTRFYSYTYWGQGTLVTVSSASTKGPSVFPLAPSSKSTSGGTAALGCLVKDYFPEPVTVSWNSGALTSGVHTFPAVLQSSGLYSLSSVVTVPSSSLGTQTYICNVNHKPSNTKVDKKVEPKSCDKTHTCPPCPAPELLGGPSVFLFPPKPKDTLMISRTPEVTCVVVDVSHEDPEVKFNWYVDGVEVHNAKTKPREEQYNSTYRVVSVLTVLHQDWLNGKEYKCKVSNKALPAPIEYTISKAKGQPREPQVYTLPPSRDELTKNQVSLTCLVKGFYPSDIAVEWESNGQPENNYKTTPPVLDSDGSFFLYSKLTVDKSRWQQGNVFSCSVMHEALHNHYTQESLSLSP
# light: B1 light
# notes: Substitution in both H chains; position in EU numbering; also called K334Y homodimerized antibody
# B15: GpH7-B3 variant K334_18N/GpL16-k0 (Ho Ab) (antibody, human IgG1, kappa)
# heavy: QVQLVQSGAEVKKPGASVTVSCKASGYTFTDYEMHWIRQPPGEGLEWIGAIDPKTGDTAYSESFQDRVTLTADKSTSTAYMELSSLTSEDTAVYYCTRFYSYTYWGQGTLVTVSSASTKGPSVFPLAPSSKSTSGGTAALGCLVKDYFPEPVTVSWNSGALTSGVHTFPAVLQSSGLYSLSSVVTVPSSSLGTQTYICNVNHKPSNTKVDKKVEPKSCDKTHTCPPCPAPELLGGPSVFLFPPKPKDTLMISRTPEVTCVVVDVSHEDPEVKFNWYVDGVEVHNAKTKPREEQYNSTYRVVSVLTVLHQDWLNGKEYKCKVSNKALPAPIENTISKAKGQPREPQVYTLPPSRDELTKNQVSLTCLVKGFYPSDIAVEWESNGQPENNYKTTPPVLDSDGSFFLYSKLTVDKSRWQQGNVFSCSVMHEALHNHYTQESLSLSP
# light: B1 light
# notes: Substitution in both H chains; position in EU numbering; also called K334N homodimerized antibody
# B16: GpH7-B3 variant L328_14T/GpL16-k0 (Ho Ab) (antibody, human IgG1, kappa)
# heavy: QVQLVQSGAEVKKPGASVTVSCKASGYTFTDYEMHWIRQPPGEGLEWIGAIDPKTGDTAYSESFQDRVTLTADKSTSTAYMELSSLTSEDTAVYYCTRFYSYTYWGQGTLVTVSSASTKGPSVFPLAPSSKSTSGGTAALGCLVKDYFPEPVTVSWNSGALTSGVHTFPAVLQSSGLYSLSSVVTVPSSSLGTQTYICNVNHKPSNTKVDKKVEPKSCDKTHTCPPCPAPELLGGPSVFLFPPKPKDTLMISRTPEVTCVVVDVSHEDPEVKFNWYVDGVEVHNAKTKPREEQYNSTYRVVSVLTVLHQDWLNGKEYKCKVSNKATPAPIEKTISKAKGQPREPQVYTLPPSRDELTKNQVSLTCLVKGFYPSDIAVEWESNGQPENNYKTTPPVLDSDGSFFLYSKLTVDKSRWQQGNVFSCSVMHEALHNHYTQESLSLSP
# light: B1 light
# notes: Substitution in both H chains; position in EU numbering; also called L328T homodimerized antibody
# B17: GpH7-B3 variant K334_19Q/GpL16-k0 (Ho Ab) (antibody, human IgG1, kappa)
# heavy: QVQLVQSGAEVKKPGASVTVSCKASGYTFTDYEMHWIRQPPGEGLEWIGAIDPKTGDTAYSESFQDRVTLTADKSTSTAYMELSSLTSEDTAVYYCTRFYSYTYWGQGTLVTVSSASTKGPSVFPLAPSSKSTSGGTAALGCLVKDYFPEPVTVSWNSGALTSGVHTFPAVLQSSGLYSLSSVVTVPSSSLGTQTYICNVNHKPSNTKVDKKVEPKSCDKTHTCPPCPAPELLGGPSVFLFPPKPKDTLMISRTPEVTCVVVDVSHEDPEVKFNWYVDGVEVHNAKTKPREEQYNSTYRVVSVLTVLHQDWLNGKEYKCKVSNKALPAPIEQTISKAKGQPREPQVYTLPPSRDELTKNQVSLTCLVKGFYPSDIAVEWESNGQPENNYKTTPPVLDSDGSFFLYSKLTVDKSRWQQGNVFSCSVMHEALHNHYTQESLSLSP
# light: B1 light
# notes: Substitution in both H chains; position in EU numbering; also called K334Q homodimerized antibody
# B18: GpH7-B3 variant L328_19Q/GpL16-k0 (Ho Ab) (antibody, human IgG1, kappa)
# heavy: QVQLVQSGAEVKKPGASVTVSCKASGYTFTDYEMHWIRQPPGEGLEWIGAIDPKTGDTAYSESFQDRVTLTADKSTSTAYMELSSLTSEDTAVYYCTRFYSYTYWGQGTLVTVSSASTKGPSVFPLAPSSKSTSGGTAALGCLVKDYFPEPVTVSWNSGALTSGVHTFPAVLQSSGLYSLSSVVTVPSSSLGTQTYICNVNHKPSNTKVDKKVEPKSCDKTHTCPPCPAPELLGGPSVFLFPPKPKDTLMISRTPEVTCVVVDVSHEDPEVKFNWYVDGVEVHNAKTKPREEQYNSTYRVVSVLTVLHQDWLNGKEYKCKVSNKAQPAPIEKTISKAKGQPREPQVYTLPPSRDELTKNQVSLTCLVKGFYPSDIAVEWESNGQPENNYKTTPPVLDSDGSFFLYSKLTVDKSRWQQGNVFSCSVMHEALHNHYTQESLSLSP
# light: B1 light
# notes: Substitution in both H chains; position in EU numbering; also called L328Q homodimerized antibody
# B19: GpH7-B3 variant L328_06M/GpL16-k0 (Ho Ab) (antibody, human IgG1, kappa)
# heavy: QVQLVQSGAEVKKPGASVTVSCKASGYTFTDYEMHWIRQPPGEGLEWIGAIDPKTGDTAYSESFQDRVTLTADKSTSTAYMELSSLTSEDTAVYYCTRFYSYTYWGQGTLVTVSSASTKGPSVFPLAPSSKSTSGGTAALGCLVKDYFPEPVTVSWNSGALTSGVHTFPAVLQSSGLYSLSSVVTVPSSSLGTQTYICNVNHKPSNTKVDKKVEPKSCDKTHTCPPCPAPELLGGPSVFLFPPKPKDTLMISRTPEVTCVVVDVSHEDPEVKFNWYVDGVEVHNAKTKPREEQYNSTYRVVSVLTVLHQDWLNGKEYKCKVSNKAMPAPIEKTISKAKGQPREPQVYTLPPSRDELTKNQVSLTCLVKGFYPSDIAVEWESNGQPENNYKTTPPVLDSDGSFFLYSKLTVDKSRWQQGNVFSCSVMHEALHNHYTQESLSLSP
# light: B1 light
# notes: Substitution in both H chains; position in EU numbering; also called L328M homodimerized antibody
# B20: GpH7-B3 variant K334_16H/GpL16-k0 (Ho Ab) (antibody, human IgG1, kappa)
# heavy: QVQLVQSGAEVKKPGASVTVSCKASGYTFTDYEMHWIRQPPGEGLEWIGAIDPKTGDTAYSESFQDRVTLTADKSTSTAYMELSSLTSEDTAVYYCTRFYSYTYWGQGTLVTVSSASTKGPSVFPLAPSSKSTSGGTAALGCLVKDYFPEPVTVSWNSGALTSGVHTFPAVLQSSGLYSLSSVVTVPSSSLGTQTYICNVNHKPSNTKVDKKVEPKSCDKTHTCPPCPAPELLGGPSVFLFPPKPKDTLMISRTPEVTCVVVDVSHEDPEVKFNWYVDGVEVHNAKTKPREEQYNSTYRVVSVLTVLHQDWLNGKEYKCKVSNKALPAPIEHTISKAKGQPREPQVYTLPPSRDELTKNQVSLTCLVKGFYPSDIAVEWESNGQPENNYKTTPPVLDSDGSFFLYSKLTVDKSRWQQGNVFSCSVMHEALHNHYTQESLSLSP
# light: B1 light
# notes: Substitution in both H chains; position in EU numbering; also called K334H homodimerized antibody
# Biological target: T1, FcγRIIa H (human, UniProt P12318 34-217)
# T1 construct: extracellular domain; also called FcγRIIa type H; 2aH
# T1 sequence (looked up): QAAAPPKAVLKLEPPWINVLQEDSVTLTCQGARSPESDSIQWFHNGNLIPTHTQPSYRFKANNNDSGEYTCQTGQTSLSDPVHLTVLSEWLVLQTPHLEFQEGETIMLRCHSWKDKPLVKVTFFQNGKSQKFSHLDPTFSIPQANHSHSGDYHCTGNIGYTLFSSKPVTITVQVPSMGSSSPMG
# Experiment: SPR; He/Con_2aH divided by He/Con_2b (FcγRIIb)
# Experimental: The heterodimerized antibodies He Abs in which one of the H chains was introduced with an alteration were assayed for their binding activities to each activating FcγR and inhibitory FcγR according to the method described in Example 4. […] The activating FcγRs in FIGS. 26, 27, 28, and 29 are FcγRIa, FcγRIIa (R), FcγRIIa (H), and FcγRIIIa, respectively.
# Analysis of interaction between objective antibody and the FcγR was carried out using Biacore T100 (GE Healthcare). HBS-EP+ (GE Healthcare) was used as the running buffer, and the measurement temperature was set to 25° C. Chips produced by immobilizing the antigen peptide by the amine coupling method to a Series S Sencor Chip CM5 (GE Healthcare), or alternatively, chips produced by allowing preliminarily biotinylated antigen peptides to interact with and immobilize onto a Series S Sensor Chip SA (certified) (GE Healthcare) were used. Antibodies of interest were captured onto an antigen peptide-immobilized chip, and allowed to interact to each FcγR diluted with running buffer. To regenerate and repeatedly use the chip, the antibodies captured on the chip were washed off by reacting 10 mM glycine-HCl, pH 1.5.
row,Binder,He_2aH/2b (IIaH/IIb) [ratio]
1,B1,0.26
2,B2,0.52
3,B3,0.18
4,B4,0.17
5,B5,0.45
6,B6,0.58
7,B7,0.61
8,B8,0.55

# Biological target: T1, FcγRIIa H
# Experiment: SPR (Biacore), relative binding vs GpH7-A5/GpH7-B3/GpL16-k0
row,Binder,He/Con_2aH
1,B1,50.8 % of control He Ab (=100)
2,B2,19.6 % of control He Ab (=100)
3,B3,34.7 % of control He Ab (=100)
4,B4,12 % of control He Ab (=100)
5,B5,29.8 % of control He Ab (=100)
6,B6,70.1 % of control He Ab (=100)
7,B7,63.3 % of control He Ab (=100)
8,B8,97 % of control He Ab (=100)

# Biological target: T2, FcγRIIb (human, UniProt P31994 43-217)
# T2 construct: extracellular domain; also called 2b
# T2 sequence (looked up): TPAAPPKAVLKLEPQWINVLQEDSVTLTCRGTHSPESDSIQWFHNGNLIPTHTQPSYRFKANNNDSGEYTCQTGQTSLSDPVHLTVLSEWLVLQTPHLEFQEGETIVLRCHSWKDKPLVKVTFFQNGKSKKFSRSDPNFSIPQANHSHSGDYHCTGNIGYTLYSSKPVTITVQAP
# Experiment: as above
row,Binder,He/Con_2b
1,B1,192 % of control He Ab (=100)
2,B2,37.9 % of control He Ab (=100)
3,B3,192 % of control He Ab (=100)
4,B4,71.9 % of control He Ab (=100)
5,B5,65.9 % of control He Ab (=100)
6,B6,120 % of control He Ab (=100)
7,B7,104 % of control He Ab (=100)
8,B8,175 % of control He Ab (=100)

# Biological target: T3, FcγRIIb extracellular domain with C-terminal His tag (human, UniProt P31994 43-217)
# T3 construct: extracellular domain; Expressed in FreeStyle293 cells; used as analyte in Biacore; also called FcgRIIb; 2b; not shown: C-terminal His tag
# T3 sequence (looked up): T2 sequence (looked up)
# Experiment: SPR (Biacore), antibody captured on antigen-peptide chip, FcgRIIb as analyte; binding relative to GpH7-B3/GpL16-k0 (HoCon Ab) = 100
row,Binder,Ho/Con_2b
1,B9,135 % of control
2,B10,241 % of control
3,B11,188 % of control
4,B12,235 % of control
5,B13,272 % of control
6,B14,126 % of control
7,B15,128 % of control
8,B16,146 % of control
9,B17,117 % of control
10,B18,111 % of control
11,B19,171 % of control
12,B20,124 % of control
